# Test: soluble on expression in E. coli; label from the status in PepcDB or PDB records
row,Sequence,soluble on expression in E. coli
1,MYGTEQVISGTIIAGPELDPIEGYICVKNGIITEIGEEHTYSANIIAPCFVNAHTHLGDSVCKDPPLGKTSGFRVQKDLDSLVKPPDGLKHRILRDTSYKTLIQYIRKSLLDMIETGTCAFADFREGGVVGLAALNKALEGLNLHSLIFGRPTEPQLPLEVVLAEVRRVLSHSDGLGMSGANDLDMELLQEMTTCTRDRKKLFAIHAGEKNRSDIEKALSLEPDLLIHLTHATKKDLEDVAQTGAPVVVCPRSNFVTGSGMAPIAEMLEAEIRVAAGTDNVMLNSVNMFAEMEFMSKVFSIEDRQVFKICTLNGSFVMGPDSTGSIEKGNKANLMILNGSSNNLAGIKDPISGITKRARPDDILAVLHS,soluble
2,MSVTYDDSVGVEVSSDSFWEVGNYKRTVKRIDDGHRLCSDLMNCLHERARIEKAYAQQLTEWARRWRQLVEKGPQYGTVEKAWMAFMSEAERVSELHLEVKASLMNDDFEKIKNWQKEAFHKQMMGGFKETKEAEDGFRKAQKPWAKKLKEVEAAKKAHHAACKEEKLAISREANSKADPSLNPEQLKKLQDKIEKCKQDVLKTKEKYEKSLKELDQGTPQYMENMEQVFEQCQQFEEKRLRFFREVLLEVQKHLDLSNVAGYKAIYHDLEQSIRAADAVEDLRWFRANHGPGMAMNWPQFEEWSADLNRTLSRREKKKATDGVTLTGINQTGDQSLPSKPSSTLNVPSNPAQSAQSQSSYNPFEDEDDTGSTVSEKDDTKAKNVSSYEKTQSYPTDWSDDESNNPFSSTDANGDSNPFDDDATSGTEVRVRALYDYEGQEHDELSFKAGDELTKMEDEDEQGWCKGRLDNGQVGLYPANYVEAIQ,soluble
3,MGSDKIHHHHHHMKNYTPIQTETTQNHSKSAGMNNQTEKVLDFDECITFLNKKGKELFGLKFFIDPADYEVVYKILIYIIKDERNAQRHKISLDKGIMLSGPVGCGKTTLMNLMNHIIPVANRYIVRSCRLVSYDFISQGYDAIHKYSYQSFKNNKKVVTPQAWCFDDLGTESSLKYYGNECNVMAEILLSRYDLFIEKDMVTHITTNLVAEEIESFYGVRVRSRMREMFNLISFDRNSKDKRV,not soluble
4,MALVIAGERSGVGKTTVTLTLLASLCRRSAIVQSFKVGPDYIDPMFHTYVTGRACRNLDPVLTSEAYVQQCFARHYQESEYALVEGVMGLFDGIGRQEAGGQGAGGRENNFSTSHSALTTDFASTAHVARLLDLPVVLVIDCSRLSGSVAAIAHGYCSFDPRIKMAGVVLNRVGSDRHLSLLQDALKPLQLPILGVLRRQDDITIPDRHLGLIPTAELPELNAVINRLADLGDTCFDWQNLLPLLQAKEVGGREQGAGSRGQGAGEAGEAGGELTARFSPNPQSPIPNPQSPVPHPPKIAVARDRAFNFYYQDNLDLLQQLGAELVFWSPLTDGELPSGVRGMYFGGGFPEVFASQLAENSSARDAVKQAILAGMPTIAECGGLMYLCEQIIDFEGQSWPMVGVLPTSAAMGGRLTLGYRRAVALQDSLLVNVGTHIYGHEFHRSRLITAPTQPLFETYRYDCPENMGCEGWGFPKNIHASYVHLHWGESGEIPRQFIQQCAYFGETIDLVHMYLEHHHHHH,not soluble
5,MHFKRVVKWGLNMYQNQRIKDKINILGVNFDNTTMLEMLENIKQFISSNTDDNLFIVTANPEIVDYATEHELYRNLINQADYVVPDGTGIVKASKRLKQPLKRRVPGIELLEECLKIAHVSHQRVYLLGSKNEIVETAEKKLQSQYPNIHFAHHHGYIHLEDETVIKRITSFNPDYIFVGMGFPKQEQWIQKHKDKFKHTVMMGVGGSFEVFSGSKKRAPQIFRKLNIEWVYRVLIDWKRIGRMISIPKFMLKVAIQKYKMKSK,not soluble
6,FLGELLIDLPLPVDTPSVDQCEKCRACITSCPTQAIVEDKVVDARRCISYLTIEFDGVIPEEFRKPMGNRIYGCDDCQLVCPWNRYADVTEQEDFHRRESFHNPDLVE,not soluble
7,SERRLGVRAWVKENRGSFQPPVCNKLMHQEQLKVMFIGGPNTRKDYHIEEGEEVFYQLEGDMVLRVLEQGKHRDVVIRQGEIFLLPARVPHSPQRFANTVGLVVERRRLETELDGLRYYVGDTMDVLFEKWFYCKDLGTQLAPIIQEFFSSEQYRTGKPIPDQLLKEPPFPLSTRSIMEPMSLDAWLDSHHRELQAGTPLSLFGDTYETQVIAYGQGSSEGLRQNVDVWLWQLEGSSVVTMGGRRLSLAPDDSLLVLAGTSYAWERTQGSVALSVTQDPACKKPLG,soluble

# From the DeepSol protein solubility set
